Substitutions are numbered along the chain they refer to.
B1: YK-RSV-009 (protein)
chain: QNITEEFYCSTCSAVSKGYLGALRTGWYTSVILIELSNIKENKCNGTDAKVKLIKQELDKYKNAVTDLQLLMQSTPATGSGSAIASGVAVSKVLHLEGEVNKIKSALLSTNKAVVSLSNGVSVLTFKVLDLKNYIDKQLLPIVNKQSCSIPNIETVIEFQQKNNRLLEITREFSVNAGVTTPVSTYMLTNSELLSLINDMPITNDQKKLMSNNVQIVRQQSYSIMSIIKEEVLAYVVQLPLYGVIDTPCWKLHTSPLCTTNTKEGSNICLTRTDRGWYCDNAGSVSFFPQAETCKVQSNRVFCDTMNSRTLPSEVNLCNVDIFNPKYDCKIMTSKTDVSSSVITSLGAIVSCYGKTKCTASNKNRGIIKTFSNGCDYVSNKGVDTVSVGNTLYYVNKQEGQSLYVKCEPIINFYDPLVFPSSEFDASISQVNEKINQSLAFIRKSDELLHNVNAGKSTTNIMITTIIIVIIVILLSLIAVGLLLY
B2: YK-RSV-010 (protein)
chain: B1 chain with C9Q, S30C, L124C, C407G
B3: YK-RSV-043 (protein)
chain: B1 chain with C9Q, L33T, T75C, S86C, V143L, C407G, S422D
B4: YK-RSV-055 (protein)
chain: B1 chain with C9Q, L33T, A83C, V143L, I228C, C407G, S422D
B5: YK-RSV-057 (protein)
chain: B1 chain with C9Q, L33T, A83C, V143L, I227C, C407G, S422D
B6: YK-RSV-048 (protein)
chain: QNITEEFYQSTCSAVSKGYLGALRTGWYTSVITIELSNIKENKCNGTDAKVKLIKQELDKYKNAVTDLQLLMQSTPATGSGSFLGFLCGVGSAIASGVAVSKVLHLEGEVNKIKSALLSTNKAVVSLSNGVSVLTFKVLDLKNYIDKQLLPILNKQSCSIPNIETVIEFQQKNNRLLEITREFSVNAGVTTPVSTYMLTNSELLSLINDMPITNDQKKLMSNNVQIVRQQSYSIMSIIKEEVLAYVVQLPLYGVIDTPCWKLHTSPLCTTNTKEGSNICLTRTDRGWYCDNAGSVSFFPQAETCKVQSNRVFCDTMCSRTLPSEVNLCNVDIFNPKYDCKIMTSKTDVSSSVITSLGAIVSCYGKTKCTASNKNRGIIKTFSNGCDYVSNKGVDTVSVGNTLYYVNKQEGQSLYVKGEPIINFYDPLVFPSDEFDASISQVNEKINQSLAFIRKSDELLHNVNAGKSTTNIMITTIIIVIIVILLSLIAVGLLLY
B7: YK-RSV-050 (protein)
chain: B6 chain with L87C, C88L

tested on: RSV F antibody (4B9); test: ELISA binding of RSV F antigen mutants, epitope III; details: not given
Protocol: (§1) To investigate the binding of the RSV F antigen mutants to antibodies recognizing different epitopes, the binding amount was determined by an ELISA method in this example.
(§2) • 293T cells (purchased from ATCC cell bank); • Primary antibody: RSV pre-F antibody (3C12), epitope ([…] (Novoprotein, Cat. No.: DA101); • RSV pre-F antibody (7H11), epitope Quaternary (Novoprotein, Cat. No.: DA109); • RSV F antibody (11A9), epitope II (Novoprotein, Cat. No.: DA091); • RSV F antibody (4B9), epitope III (Novoprotein, Cat. No.: DA110); • RSV pre-F antibody (7E11), epitope V (Cat. No.: DA119); • Standard: RSV-pre-F trimer protein (Novoprotein, Cat. No.: DRA230); • Secondary antibody: peroxidase AffiniPure goat anti-human IgG (H+L) (Yeasen, Cat. No.: N/A); • Experimental group: mRNA vaccines after screening in Example 5;
(§3) Cell culture and transfection, and protein sample preparation: the experimental procedures were the same as in Example 3.
(§4) Detection of antigen expression by ELISA: the experimental procedures were the same as in Example 5.
(§5) In the present application, the binding of different mutant antigens to antibodies recognizing different epitopes was detected by ELISA, and the strength of the binding of the antigens to the antibodies was measured by the binding amount. (1) The RSV pre-F antibody (3C12) recognizing the epitope Φ binds only to the F protein in the pre-fusion conformation; (2) the RSV pre-F antibody (7H11) recognizes the epitope Quaternary (spanning both epitopes IV and V) and specifically binds to the F protein in the pre-fusion conformation; (3) the RSV F antibody (11A9) recognizing the epitope II can recognize both the pre-fusion and post-fusion conformations of the F protein; (4) the RSV F antibody […] recognizing the epitope III preferentially recognizes the pre-fusion conformation and has relatively weak binding activity for the post-fusion conformation; (5) the RSV pre-F antibody (7E11) recognizing the epitope V binds only to the F protein in the pre-fusion conformation.

Molecule | ELISA binding amount, Epitope III, RSV F antibody (4B9) [ng/mL]
B1 | 358
B2 | 534
B3 | 6529
B4 | 7298
B5 | 4779
B6 | 4655
B7 | 3494

same assay, conditions: antibody 4B9, relative to PC-RSV-064

Molecule | Binding amount to antibody/binding amount of PC-RSV-064 to antibody, Epitope III
B1 | 0.12
B2 | 0.19
B3 | 2.28
B4 | 2.54
B5 | 1.67
B6 | 1.62
B7 | 1.22

tested on: RSV pre-F antibody (7E11); test: ELISA binding of RSV F antigen mutants, epitope V; details: not given
Protocol: as §1, §2, §3, §4, §5

Molecule | ELISA binding amount, Epitope V, RSV F antibody (7E11) [ng/mL]
B1 | 43
B2 | 139
B3 | 223
B4 | 91
B5 | 129
B6 | 217
B7 | 923

same assay, conditions: antibody 7E11, relative to PC-RSV-064

Molecule | Binding amount to antibody/binding amount of PC-RSV-064 to antibody, Epitope V
B1 | 0.13
B2 | 0.43
B3 | 0.69
B4 | 0.28
B5 | 0.40
B6 | 0.68
B7 | 2.88

tested on: RSV F antibody (11A9); test: Binding of epitope II of RSV F antigen mutants by flow cytometry; details: epitope II, antibody 11A9
Procedure, shortened: (§6)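 293T cells were transfected with mRNA-LNP (300 ng mRNA) encoding the RSV F mutants and harvested after 16 h. Cells were stained with fluorescent 3C12 (pre-F-specific epitope Φ) or 11A9 (epitope II, pre-F and post-F) for 2 h at 4 °C in the dark, then washed and read by flow cytometry on 1×10^4 cells per measurement.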

Molecule | RSV F antibody (11A9) Epitope II (%) binding rate [%]
B1 | 93.1
B6 | 95.1
B7 | 93.0

tested on: RSV pre-F antibody (3C12); test: Binding of epitope Φ of RSV F antigen mutants by flow cytometry; details: flow cytometry; epitope Φ, antibody 3C12
Procedure, shortened: as §6

Molecule | RSV pre-F antibody (3C12) Epitope Φ (%) binding rate [%]
B1 | 87.4
B6 | 89.6
B7 | 86.5

same assay, conditions: ratio of epitope Φ (3C12) to epitope II (11A9) binding rate

Molecule | Φ/II (%)
B1 | 93.9
B2 | 97.3
B3 | 95.3
B4 | 97.0
B5 | 97.1
B6 | 94.2
B7 | 93.0

— patent publication US12514920B1, “Respiratory syncytial virus mRNA vaccine, and preparation method therefor and use thereof” (Hangzhou Tianlong Pharmaceutical Co., Ltd., priority 2024, dated 2026)
